# Assay results: patent publication US20070104647A1
# Columns and labels:
# [1] = biological target: Full length HA-tagged Ovr115 (Met1-Leu435) expressed on transfected LMTK or 293F cells (human) (UniProt Q9NRS4); test: FACS, Ovr115-HA LMTK cells
# [2] = biological target: transferrin receptor on 293F and HT29 cells (UniProt P02786); test: FACS, Ovr115-transfected 293F cells
# [3] = biological target: transferrin receptor on 293F and HT29 cells (UniProt P02786); test: cell-based or functional assay
# [4] = biological target: transferrin receptor on 293F and HT29 cells (UniProt P02786); test: FACS, non-transfected 293F cells
# [5] = biological target: Full length HA-tagged Ovr115 (Met1-Leu435) expressed on transfected LMTK or 293F cells (human) (UniProt Q9NRS4); test: FACS, Ovr115-transfected 293F cells
# [6] = biological target: Full length HA-tagged Ovr115 (Met1-Leu435) expressed on transfected LMTK or 293F cells (human) (UniProt Q9NRS4); test: FACS on Ovr115 transfected mouse LMTK cells, PE conjugate alone without MAb [panel A]
# Chain of UniProt P02786 (P02786 whole entry): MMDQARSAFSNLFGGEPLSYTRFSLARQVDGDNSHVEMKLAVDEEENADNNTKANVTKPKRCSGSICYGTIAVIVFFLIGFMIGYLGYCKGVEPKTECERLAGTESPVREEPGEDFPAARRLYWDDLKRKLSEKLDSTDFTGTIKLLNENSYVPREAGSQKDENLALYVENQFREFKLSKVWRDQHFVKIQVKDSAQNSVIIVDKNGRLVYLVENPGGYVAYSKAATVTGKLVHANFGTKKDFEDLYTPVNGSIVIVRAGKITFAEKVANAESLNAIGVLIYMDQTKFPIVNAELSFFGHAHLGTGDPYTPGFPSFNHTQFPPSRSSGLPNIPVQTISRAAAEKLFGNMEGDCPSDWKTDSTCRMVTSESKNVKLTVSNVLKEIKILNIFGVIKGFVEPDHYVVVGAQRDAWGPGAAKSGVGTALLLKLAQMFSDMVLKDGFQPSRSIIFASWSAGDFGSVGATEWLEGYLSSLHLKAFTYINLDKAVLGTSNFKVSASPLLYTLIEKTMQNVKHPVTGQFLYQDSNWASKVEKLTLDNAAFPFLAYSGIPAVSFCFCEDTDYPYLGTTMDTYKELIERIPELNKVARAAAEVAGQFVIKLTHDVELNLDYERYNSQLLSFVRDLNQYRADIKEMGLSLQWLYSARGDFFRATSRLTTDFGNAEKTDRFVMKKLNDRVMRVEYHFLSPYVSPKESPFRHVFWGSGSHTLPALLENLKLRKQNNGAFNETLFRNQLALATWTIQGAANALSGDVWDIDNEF
% cells positive [1],MFI [1],% cells positive [2],MFI [2],Percent Growth Inhibition Compared to Wells with Medium Alone; HT29; MAb (0.08 µg/mL) + MAb Zap saporin conjugate [3],Percent Growth Inhibition Compared to Wells with Medium Alone; HT29; MAb (0.4 µg/mL) + MAb Zap saporin conjugate [3],Percent Growth Inhibition Compared to Wells with Medium Alone; HT29; MAb (2 µg/mL) + MAb Zap saporin conjugate [3],% cells positive [4],MFI [4],% cells positive [5],MFI [5],Mean of Fluorescence [6],Substance
61%,19,–,–,–,–,–,–,–,–,–,–,Anti-HA MAb (Covance) (antibody)
–,–,99.4%,71.1,18%,58%,35%,99.8%,54.3,–,–,–,5E9C11 (antibody)
0.6%,2.15,–,–,–,–,–,–,–,1.7%,0.567,0.57,phycoerythrin (PE) conjugated donkey anti-mouse IgG Fc antibody
